Reference: article PMC7701066
Each block holds one substance with its values, some of them ahead of it.

Assays:
[1] = target: FLAG-tagged wild-type central Reelin fragment (Reelin repeats 3–6), Fc removed (UniProt Q60841); experiment: SEC; Superose 6 Increase 10/300 GL, A280 traces of heterodimer, FLAG-WT homodimer and His6-K2467A homodimer
[2] = target: His6-tagged K2467A mutant central Reelin fragment (Reelin repeats 3–6), Fc removed (UniProt Q60841); experiment: as above
[3] = target: Fc-fused Reelin heterodimer (FLAG-WT / His6-K2467A central fragment, Fc retained) (UniProt Q60841); experiment: BLI; BLItz; Fc-fused heterodimer on a Protein A biosensor; dilution series (11 concentrations) of ecto-VLDLR; 20 mM Hepes pH 7.4, 150 mM NaCl, 1 mM CaCl2, 0.2% Tween20, 0.1% BSA; association 45 s, dissociation 60 s without CaCl2 and with 1 mM EDTA; maximum responses fitted to one site specific binding; triplicate

- stoichiometry N [1]: 2
Substance: FLAG-tagged wild-type central Reelin fragment (Reelin repeats 3–6), Fc removed (from UniProt Q60841 27-3461) (domain or fragment)

- stoichiometry N [2]: 2
Substance: His6-tagged K2467A mutant central Reelin fragment (Reelin repeats 3–6), Fc removed (from UniProt Q60841 27-3461) (domain or fragment)

- Kd [3]: 129 nM
Substance: purified extracellular domain of VLDLR (very-low density lipoprotein receptor) (from UniProt P98155 28-797)
